The values below come from patent US20240083953A1 (University of Washington, published 2024).

The target of assay [1] is DSG2 on human cells (HeLa, T84) (human) (UniProt Q14126). The experiment in a line: cell-based or functional assay.
Assay [2] has the same target. In words: competition with 3H-labelled Ad3 virus for attachment to HeLa cells.
Assay [3] addresses T1, DSG2 on human cells (HeLa, T84) (human, UniProt Q14126 50-1118).
T1 sequence: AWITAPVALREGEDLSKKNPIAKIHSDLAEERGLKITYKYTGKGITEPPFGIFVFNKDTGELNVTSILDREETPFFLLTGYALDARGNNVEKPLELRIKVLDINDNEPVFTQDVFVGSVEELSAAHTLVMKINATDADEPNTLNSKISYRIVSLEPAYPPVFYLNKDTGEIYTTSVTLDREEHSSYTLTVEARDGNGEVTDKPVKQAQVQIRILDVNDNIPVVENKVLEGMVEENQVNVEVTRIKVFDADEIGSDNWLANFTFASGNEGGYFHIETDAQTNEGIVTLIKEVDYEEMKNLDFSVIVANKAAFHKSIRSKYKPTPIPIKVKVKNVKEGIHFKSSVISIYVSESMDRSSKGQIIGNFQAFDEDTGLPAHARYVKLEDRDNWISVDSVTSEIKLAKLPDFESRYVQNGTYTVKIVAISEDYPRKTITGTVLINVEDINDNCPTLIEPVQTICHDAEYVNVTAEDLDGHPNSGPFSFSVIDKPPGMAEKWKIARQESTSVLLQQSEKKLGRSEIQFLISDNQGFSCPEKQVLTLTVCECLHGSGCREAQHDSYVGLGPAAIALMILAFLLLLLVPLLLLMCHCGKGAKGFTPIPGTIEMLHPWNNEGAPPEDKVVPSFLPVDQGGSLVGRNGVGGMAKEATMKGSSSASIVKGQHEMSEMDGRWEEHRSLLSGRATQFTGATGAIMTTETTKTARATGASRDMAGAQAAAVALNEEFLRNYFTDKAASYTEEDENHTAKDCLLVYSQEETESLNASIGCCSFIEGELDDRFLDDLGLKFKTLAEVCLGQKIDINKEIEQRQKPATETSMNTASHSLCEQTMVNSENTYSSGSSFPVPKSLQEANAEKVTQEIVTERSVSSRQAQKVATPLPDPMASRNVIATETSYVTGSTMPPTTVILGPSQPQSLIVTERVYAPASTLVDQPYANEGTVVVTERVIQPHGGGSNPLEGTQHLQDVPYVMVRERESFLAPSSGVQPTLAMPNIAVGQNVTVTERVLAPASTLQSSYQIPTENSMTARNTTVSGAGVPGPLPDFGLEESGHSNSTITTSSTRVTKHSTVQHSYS
The experiment in a line: cell-based or functional assay.

Assay [4] deals with T2, Recombinant human DSG2 protein (desmoglein 2), soluble (human, UniProt Q14126 50-609).
T2 construct: also called soluble DSG2; soluble recombinant DSG2
T2 sequence: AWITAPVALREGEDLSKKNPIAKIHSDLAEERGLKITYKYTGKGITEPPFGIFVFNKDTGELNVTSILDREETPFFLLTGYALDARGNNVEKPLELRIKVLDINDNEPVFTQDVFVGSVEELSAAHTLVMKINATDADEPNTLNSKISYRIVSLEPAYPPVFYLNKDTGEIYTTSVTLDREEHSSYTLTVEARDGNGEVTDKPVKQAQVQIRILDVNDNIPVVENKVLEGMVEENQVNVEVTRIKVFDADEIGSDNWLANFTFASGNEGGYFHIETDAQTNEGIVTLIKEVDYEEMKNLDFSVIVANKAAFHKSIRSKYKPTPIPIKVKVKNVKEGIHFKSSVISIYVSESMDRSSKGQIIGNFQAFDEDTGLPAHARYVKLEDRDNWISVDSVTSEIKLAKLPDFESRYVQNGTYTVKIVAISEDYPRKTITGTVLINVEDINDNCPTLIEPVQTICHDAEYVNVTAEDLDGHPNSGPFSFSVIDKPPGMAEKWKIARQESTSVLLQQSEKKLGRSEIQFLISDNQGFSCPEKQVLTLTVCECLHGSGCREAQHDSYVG
The experiment in a line: SPR, DSG2 immobilised; the filing's constants were got with the knobs without dimerization domain, so the value is set on V239D/noDD.

Assay [5] has as its target T2, Recombinant human DSG2 protein …. In words: SPR, DSG2 immobilised; the filing's constants were got with the knobs without dimerization domain, so the value is set on Y250F/noDD.
The target of the next assay is T3, Soluble CD46 (UniProt P15529 35-343).
T3 construct: also called sCD46
T3 sequence: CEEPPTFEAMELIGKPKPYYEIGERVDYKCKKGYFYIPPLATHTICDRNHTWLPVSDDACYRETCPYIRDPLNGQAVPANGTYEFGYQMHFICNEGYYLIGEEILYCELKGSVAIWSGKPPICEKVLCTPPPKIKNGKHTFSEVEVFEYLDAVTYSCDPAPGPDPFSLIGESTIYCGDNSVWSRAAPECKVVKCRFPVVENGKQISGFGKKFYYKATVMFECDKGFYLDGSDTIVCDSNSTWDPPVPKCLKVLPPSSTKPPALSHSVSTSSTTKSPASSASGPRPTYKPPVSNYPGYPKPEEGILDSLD
In words: Western blot, soluble CD46 as probe, anti-CD46 mAb.

The target in assay [6] is T2, Recombinant human DSG2 protein …. In words: Western blot of the blotted knob protein probed with soluble human DSG2, anti-DSG2 mAb 6D8 and HRP-anti-mouse IgG.
Assay [7] addresses T1, DSG2 on human cells (HeLa, T84). In words: cell-based or functional assay. This is another data set of the same source.
For assay [8] the target is unchanged. In words: cell-based or functional assay. This is another data set of the same source.
Assay [9] addresses T2, Recombinant human DSG2 protein …. In words: Western blot of dimeric knob, soluble DSG2 as probe.

Numbering of substitutions follows the chain as printed. Names may count otherwise. Read-outs that look alike come from different tables or passages of the source.

As for “Dimeric Ad3 fiber knob mutant N186D, D261N, L296R (ligand)”, in assay [1], the Inhibition of infection in the presence of dimeric knob (JO-1 = 100%) turned out to be 0%. In addition, in [2], the Inhibition of attachment in the presence of dimeric knob (JO-1 = 100%) was 18.5%. As to “Dimeric Ad3 fiber knob mutant D261N, L296R (ligand)”, the Inhibition of infection in the presence of dimeric knob (JO-1 = 100%) in [1] worked out at 1.5%. The Inhibition of attachment in the presence of dimeric knob (JO-1 = 100%) in assay [2] is 20.1%.

B1: Ad3 fiber knob mutant V239D without dimerization domain (ligand)
chain: NKLCSKLGNGLTFDSSNSIALKNNTLWTGPKPEANCIIEYGKQNPDSKLTLILVKNGGIVNGYVTLMGASDYVNTLFKNKNVSINVELYFDATGHILPDSSSLKTDLELKYKQTADFSARGFMPSTTAYPFDLPNAGTHNENYIFGQCYYKASDGALFPLEVTVMLNKRLPDSRTSYVMTFLWSLNAGLAPETTQATLITSPFTFSYIREDD
notes: range 108-319; also called V239D/noDD; not shown: N-terminal 6-His tag of pQE30 and a Gly/Ser linker coded by primer P1
B1: in assay [3], the “IC50 (read off the curve): inhibition of Ad3-GFP infection of HeLa cells, MFI of GFP” value is roughly 4 µg/mL. For the same molecule, in assay [4], the dissociation constant (Kd) came to 24.9 nM.

B2: Ad3 fiber knob mutant Y250F without dimerization domain (ligand)
chain: B1 chain with D132V, Y143F
notes: range 108-319; also called Y250F/noDD; not shown: N-terminal 6-His tag of pQE30 and a Gly/Ser linker coded by primer P1
Regarding B2, the Kd in [5] came to 11.4 nM.

B3: Ad3-S6/Kn (ligand)
chain: NGVLSLKCVNPLTTASGSLQLKVGSGLTVDTTDGSLEENIKVNTPLTKSNHSINLPIGNGLQIEQNKLCSKLGNGLTFDSSNSIALKNNTLWTGPKPEANCIIEYGKQNPDSKLTLILVKNGGIVNGYVTLMGASDYVNTLFKNKNVSINVELYFDATGHILPDSSSLKTDLELKYKQTADFSARGFMPSTTAYPFVLPNAGTHNENYIFGQCYYKASDGALFPLEVTVMLNKRLPDSRTSYVMTFLWSLNAGLAPETTQATLITSPFTFSYIREDD
notes: also called Ad3 fiber knob with six shaft motifs
On to B3, for which the binding result with Soluble CD46 is given as “no binding”.

B4: Ad3-S/Kn (ligand)
chain: SIALKNNTLWTGPKPEANCIIEYGKQNPDSKLTLILVKNGGIVNGYVTLMGASDYVNTLFKNKNVSINVELYFDATGHILPDSSSLKTDLELKYKQTADFSARGFMPSTTAYPFVLPNAGTHNENYIFGQCYYKASDGALFPLEVTVMLNKRLPDSRTSYVMTFLWSLNAGLAPETTQATLITSPFTFSYIREDD
B4: the binding result (in assay [6]; with Soluble CD46) was “no binding” in each case.

B5: JO-1 (dimeric wild-type Ad3 fiber knob) (ligand)
chain: MKVSALKEKVSALKEKVSALKEKVSALKEKVSALKEGSGGGSGGGSGGGSNSIALKNNTLWTGPKPEANCIIEYGKQNPDSKLTLILVKNGGIVNGYVTLMGASDYVNTLFKNKNVSINVELYFDATGHILPDSSSLKTDLELKYKQTADFSARGFMPSTTAYPFVLPNAGTHNENYIFGQCYYKASDGALFPLEVTVMLNKRLPDSRTSYVMTFLWSLNAGLAPETTQATLITSPFTFSYIREDD
notes: also called dimeric wt Ad3 fiber knob; dimeric wtAd3 knob
For the molecule B5, the “IC50 (read off the curve): inhibition of Ad3-GFP infection of HeLa cells, MFI of GFP” value in assay [7] was roughly 0.6 µg/mL. Further, the “IC50 (read off the curve): inhibition of Ad3-GFP infection of HeLa cells, % GFP-positive cells” value in [8] was roughly 5 µg/mL. For the same molecule, the binding result with Soluble CD46 is “no binding”.

B6: Dimeric Ad3 fiber knob mutant N186D, D261N, L296R (ligand)
chain: B5 chain with N113D, D188N, L223R
notes: also called mutant with mutations in all three areas (N185, D261, L296)
Regarding B6, the binding result in assay [9] is “no binding”.
